The target in assay [1] is T1, DKK1-AP (UniProt O94907 32-266).
T1 construct: DKK1 cDNA cloned into the pAPtag-5 vector (GenHunter, QV5); also called DKK1 tagged with alkaline phosphatase (AP) and 6 × His; source: HEK293, transfected, conditioned medium; purified with Ni-NTA Agarose beads; not shown: alkaline phosphatase (AP), C-terminal, kept
T1 sequence (looked up): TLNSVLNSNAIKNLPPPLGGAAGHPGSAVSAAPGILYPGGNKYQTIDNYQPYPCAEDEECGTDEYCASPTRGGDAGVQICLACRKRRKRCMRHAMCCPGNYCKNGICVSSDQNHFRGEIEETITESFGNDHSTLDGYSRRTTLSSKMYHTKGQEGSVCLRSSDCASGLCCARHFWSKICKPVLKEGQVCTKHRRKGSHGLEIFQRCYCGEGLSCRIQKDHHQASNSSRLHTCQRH
Briefly: SPR; Biacore T200; purified mLRPIV-6×His (15 μM) amine-coupled to a CM5 chip; DKK1 or DKK3 at 6.25 to 200 nM. As to conditions: both partners purified. (Surface plasmon resonance follows binding to a sensor surface in real time, without labels.)

The target in assay [2] is T2, DKK3-AP (UniProt Q9UBP4 22-350).
T2 construct: DKK3 cDNA cloned into the pAPtag-5 vector (GenHunter, QV5); also called DKK3 tagged with alkaline phosphatase (AP) and 6 × His; source: HEK293, transfected, conditioned medium; purified with Ni-NTA Agarose beads; not shown: alkaline phosphatase (AP), C-terminal, kept
The description is as above. As to conditions: both partners purified.

By Kd is commonly meant a measure of binding affinity in units of concentration. A lower Kd goes with higher affinity.

T2 sequence (Q9UBP4 22-350): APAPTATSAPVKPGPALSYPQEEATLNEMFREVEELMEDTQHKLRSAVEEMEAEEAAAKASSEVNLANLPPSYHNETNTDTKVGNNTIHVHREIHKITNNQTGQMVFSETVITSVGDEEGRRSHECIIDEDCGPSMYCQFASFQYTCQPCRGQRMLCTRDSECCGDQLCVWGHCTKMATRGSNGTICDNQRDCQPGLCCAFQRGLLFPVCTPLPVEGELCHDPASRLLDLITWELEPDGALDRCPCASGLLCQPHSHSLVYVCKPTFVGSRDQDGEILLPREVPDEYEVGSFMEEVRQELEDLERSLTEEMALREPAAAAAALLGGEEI

B1: mLRPIV-6 × His, prokaryotically expressed (domain or fragment)
chain: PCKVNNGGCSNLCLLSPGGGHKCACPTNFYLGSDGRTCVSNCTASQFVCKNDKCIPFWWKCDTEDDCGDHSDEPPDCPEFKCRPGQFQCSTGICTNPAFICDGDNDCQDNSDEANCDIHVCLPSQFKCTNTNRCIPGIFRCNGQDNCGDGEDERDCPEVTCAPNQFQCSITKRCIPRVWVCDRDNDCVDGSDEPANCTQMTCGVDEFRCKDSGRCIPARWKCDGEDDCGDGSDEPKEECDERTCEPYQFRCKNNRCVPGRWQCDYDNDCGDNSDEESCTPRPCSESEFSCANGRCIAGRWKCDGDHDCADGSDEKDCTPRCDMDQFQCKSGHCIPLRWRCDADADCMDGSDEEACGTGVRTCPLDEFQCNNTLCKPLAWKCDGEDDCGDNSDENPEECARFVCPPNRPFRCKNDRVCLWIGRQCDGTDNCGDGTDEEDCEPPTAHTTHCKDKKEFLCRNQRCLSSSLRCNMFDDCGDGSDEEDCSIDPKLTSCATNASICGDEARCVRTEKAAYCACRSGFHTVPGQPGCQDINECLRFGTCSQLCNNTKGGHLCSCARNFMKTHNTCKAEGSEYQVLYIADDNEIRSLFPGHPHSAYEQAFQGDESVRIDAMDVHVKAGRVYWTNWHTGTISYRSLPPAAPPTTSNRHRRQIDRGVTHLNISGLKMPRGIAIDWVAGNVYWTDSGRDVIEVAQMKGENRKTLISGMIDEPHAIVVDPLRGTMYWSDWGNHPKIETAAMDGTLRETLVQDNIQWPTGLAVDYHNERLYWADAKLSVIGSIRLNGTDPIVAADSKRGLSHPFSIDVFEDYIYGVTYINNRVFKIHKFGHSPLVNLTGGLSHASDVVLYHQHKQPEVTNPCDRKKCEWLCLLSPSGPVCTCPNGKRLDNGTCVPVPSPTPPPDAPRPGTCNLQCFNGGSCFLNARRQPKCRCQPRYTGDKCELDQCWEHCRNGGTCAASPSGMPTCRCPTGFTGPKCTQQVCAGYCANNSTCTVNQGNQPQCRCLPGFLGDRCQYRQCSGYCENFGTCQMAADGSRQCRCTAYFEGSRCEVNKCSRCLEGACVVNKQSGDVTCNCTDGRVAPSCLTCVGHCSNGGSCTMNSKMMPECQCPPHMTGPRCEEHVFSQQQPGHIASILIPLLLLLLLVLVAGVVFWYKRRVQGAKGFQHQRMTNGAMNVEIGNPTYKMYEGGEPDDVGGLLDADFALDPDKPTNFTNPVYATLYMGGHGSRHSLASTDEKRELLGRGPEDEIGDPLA
As to B1, the dissociation constant Kd stood at 82.3 nM in assay [1] and 35.5 nM in assay [2].

Values taken from publication PMC12594171, “DKK3-LRP1 complex and a chemical inhibitor regulate Aβ clearance in models of Alzheimer’s disease” (Science Advances, 2025).
